Publication doi:10.1101/2025.09.11.675134, “Biodistribution-Driven Discovery Identifies a Glycosidase-Cleavable Linker to Reprogram Radiotheranostics” (bioRxiv, 2025)
Read-outs that look alike come from different tables or passages of the source. Positions of bridges follow the written chain, without caps; N, C: chain ends. Non-standard residues stand in square brackets, D forms with d. Residues, ends and D or L forms follow the SMILES beside them. *: point of attachment. X1 = C[C@H](CCC(=O)*)[C@H]1CC[C@H]2[C@@H]3[C@H](O)C[C@@H]4C[C@@H](NC(=O)CNC(=O)CN5CCN(CC(=O)O)CCN(CC(=O)O)CCN(CC(=O)O)CC5)CC[C@]4(C)[C@H]3C[C@H](O)[C@]12C; DOTA = O=C(O)CN1CCN(CC(=O)O)CCN(CC(=O)*)CCN(CC(=O)O)CC1

Test: Ex vivo biodistribution screen of 111In-labeled DOTA-TATE derivatives in normal mice
Set-up: species or system athymic nude mice
Settings: 2 h post-injection; for tissue uptake at 2 h: athymic nude, mouse, iv, 1 ug per mouse, total radioactivity, normal athymic nude mice; for Relative kidney retention, % rel. to DOTA-TATE: normal mice, 111In-DOTA-TATE set as 100%
Experimental: The panel of 10 compounds were then tested in an initial biodistribution screen of 9 organs assessed in non-tumor-bearing mice at specific timepoints following administration of the radioconjugates. Each agent was initially labeled with ^111In, a long-lived gamma-emitting radioisotope suitable for biodistribution studies, with high radiochemical yields and purity (Fig. S12). The compounds were then dosed (1.55 ± 0.12 MBq; 1 μg per mouse) in healthy athymic nude mice via intravenous (i.v.) injection in phosphate-buffered saline (PBS; vehicle). After 2 hours, the mice were sacrificed and ex vivo biodistribution analysis was performed (Fig. 2). […] This was an expected finding because this variant was designed to bind serum albumin.
Radiolabeling and In Vivo Evaluation of DOTA-TATE Variants:
Biodistribution, PET Quantification, and Dosimetry
Radiolabeling: To perform the initial biodistribution screen, radiolabeling of 10 compounds, including DOTA-TATE, was carried out using 111In (Cardinal Health, Arbutus, MD, USA), an affordable and readily available gamma -emitting radioisotope with a moderate half -life (2.83 days), which affords efficient DOTA radiolabeling and facilitates handling. 111InCl3 (28 – 36 MBq) was diluted with 0.4 M NH 4OAc buffer (pH 5.2) and combined with DOTA -TATE variants (20 μg). The solution was mixed well and then incubated at 90 °C for 30 min.
Radiolabeling efficiency and radiochemical purity were determined by radio -TLC and radio - HPLC. Radiochemical yield was >95% and the material was used without further purification.
The specific activity was 1.55 ± 0.12 TBq/g (41.9 ± 3.2 Ci/g). […]
Radio-instant thin-layer chromatography (radio-iTLC) was performed using silicic acid-impregnated glass microfiber paper strips (iTLC-SA, Varian, Lake Forest, CA, USA) as the stationary phase, and 50 mM EDTA in 100 mM NH4OAc (pH 5.5) as the mobile phase, analyzed with a radio-TLC scanner (AR-2000, Eckert-Ziegler, Wilmington, MA, USA). For Ac-225, equilibration was allowed for at least 12 hours before scanning the TLC strips to confirm initial scans. Radio-HPLC analysis (Agilent 1260 Infinity II, Agilent Technologies Inc., Santa Clara, CA, USA) was conducted on a TSK- Octadecyl-4PW column (5 µm, 4.6 mm ID × 15 cm, Tosoh
Co. Tokyo, Japan) with gradient elution using 0.1% trifluoroacetic acid in water as mobile phase A and 0.1% trifluoroacetic acid in acetonitrile as Mobile phase B. The elution sequence was 0-5 […]
PET imaging and biodistribution: For initial biodistribution screen studies, normal mice were administered 1.4 – 1.8 MBq (1 μg) of 111In-DOTA-TATE variants via tail vein injection and biodistribution studies were conducted at 2 hours post -injection (n = 2 – 4 per cohort).
For studies involving three variants (DOTA -TATE, DOTA-MVK(ε)-TATE, and DOTA-β-Gal-TATE), AR42J cells (5 × 10^6 cells per mouse) were subcutaneously inoculated into the right shoulder of the mice. Tumors were allowed to grow for 3 weeks, reaching a volume of 100 –200 mm³ before being used in subsequent experiments. For biodistribution or PET imaging studies, mice bearing subcutaneous AR42J tumors were administered 1.4 – 1.8 MBq (1 μg) of 111In-labeled DOTA-TATE variants or 2.7 – 4.9 MBq (1 μg) of 86Y-labeled DOTA-TATE variants via tail vein injection. Biodistribution studies with 111In-labeled DOTA -TATE variants were performed 1 hour post -injection (n = 3 per cohort), while studies with 86Y-labeled DOTA-TATE variants were conducted at 1, 4, and 24 hours post -injection (n = 3 per cohort). Mice were euthanized by CO2 asphyxiation, and 10 tissues, including tumors, were collected. All samples were weighed and counted on a gamma counter (2480 Wizard 3, Perkin Elmer Inc., Waltham, MA, USA). Results are presented as percentage of injected activity per gram (%IA/g) and mean values ± standard deviations.
PET imaging to assess the uptake of three 86Y-labeled DOTA-TATE variants (2.7 – 4.9 MBq, 1 […]

[1] = kidney, i.v. 1 μg, ex vivo, mean (± SD), n = 2–4, read-out: Kidney uptake
[2] = blood, i.v. 1 μg (1.4–1.8 MBq), ex vivo gamma counting, mean, n = 2–4, read-out: Blood uptake
[3] = femur, i.v. 1 μg, ex vivo, mean, n = 2–4, read-out: Femur uptake
[4] = heart, i.v. 1 μg, ex vivo, mean, n = 2–4, read-out: Heart uptake
[5] = intestine, i.v. 1 μg, ex vivo, mean, n = 2–4, read-out: Intestine uptake
[6] = liver, i.v. 1 μg, ex vivo, mean, n = 2–4, read-out: Liver uptake
[7] = lung, i.v. 1 μg, ex vivo, mean, n = 2–4, read-out: Lung uptake
[8] = muscle, i.v. 1 μg, ex vivo, mean, n = 2–4, read-out: Muscle uptake
[9] = spleen, i.v. 1 μg, ex vivo, mean, n = 2–4, read-out: Spleen uptake

Compound	tissue uptake at 2 h [1]	tissue uptake at 2 h [2]	tissue uptake at 2 h [3]	tissue uptake at 2 h [4]	tissue uptake at 2 h [5]	tissue uptake at 2 h [6]	tissue uptake at 2 h [7]	tissue uptake at 2 h [8]	tissue uptake at 2 h [9]	Relative kidney retention, % rel. to DOTA-TATE
C[C@@H](O)[C@H](NC(=O)[C@@H]1CSSC[C@H](NC(=O)[C@@H](Cc2ccccc2)NC(=O)CN2CCN(CC(=O)O)CCN(CC(=O)O)CCN(CC(=O)O)CC2)C(=O)N[C@@H](Cc2ccc(O)cc2)C(=O)N[C@H](Cc2c[nH]c3ccccc23)C(=O)N[C@@H](CCCCN)C(=O)N[C@@H]([C@@H](C)O)C(=O)N1)C(=O)O [DOTA-TATE, reference compound]	6.1 %ID/g	–	–	–	–	–	–	–	–	–
C[C@@H](O)[C@H](NC(=O)[C@@H]1CSSC[C@H](NC(=O)[C@@H](Cc2ccccc2)NC(=O)[C@H](Cc2ccc(O)cc2)NC(=O)CNC(=O)CN2CCN(CC(=O)O)CCN(CC(=O)O)CCN(CC(=O)O)CC2)C(=O)N[C@@H](Cc2ccc(O)cc2)C(=O)N[C@H](Cc2c[nH]c3ccccc23)C(=O)N[C@@H](CCCCN)C(=O)N[C@@H]([C@@H](C)O)C(=O)N1)C(=O)O [^111In-DOTA-GY-TATE, metal not drawn] ({DOTA}-GY[dF]CY[dW]KTCT-OH; disulfide 4-9)	–	0.09 %ID/g	0.14 %ID/g	0.09 %ID/g	0.74 %ID/g	0.18 %ID/g	1.07 %ID/g	0.03 %ID/g	0.17 %ID/g	297%
C[C@@H](O)[C@H](NC(=O)[C@@H]1CSSC[C@H](NC(=O)[C@@H](Cc2ccccc2)NC(=O)CNC(=O)[C@H](CC(=O)O)NC(=O)[C@H](CC(=O)O)NC(=O)[C@H](CC(=O)O)NC(=O)CNC(=O)CN2CCN(CC(=O)O)CCN(CC(=O)O)CCN(CC(=O)O)CC2)C(=O)N[C@@H](Cc2ccc(O)cc2)C(=O)N[C@H](Cc2c[nH]c3ccccc23)C(=O)N[C@@H](CCCCN)C(=O)N[C@@H]([C@@H](C)O)C(=O)N1)C(=O)O [DOTA-GDDDG-TATE] ({DOTA}-GDDDG[dF]CY[dW]KTCT-OH; disulfide 7-12)	13 %ID/g	–	–	–	–	–	–	–	–	–
C[C@@H](O)[C@H](NC(=O)[C@@H]1CSSC[C@H](NC(=O)[C@@H](Cc2ccccc2)NC(=O)[C@@H](Cc2ccc(O)cc2)NC(=O)CNC(=O)CN2CCN(CC(=O)O)CCN(CC(=O)O)CCN(CC(=O)O)CC2)C(=O)N[C@@H](Cc2ccc(O)cc2)C(=O)N[C@H](Cc2c[nH]c3ccccc23)C(=O)N[C@@H](CCCCN)C(=O)N[C@@H]([C@@H](C)O)C(=O)N1)C(=O)O [^111In-DOTA-GY*-TATE, metal not drawn] ({DOTA}-G[dY][dF]CY[dW]KTCT-OH; disulfide 4-9)	–	0.06 %ID/g	0.1 %ID/g	0.06 %ID/g	0.63 %ID/g	0.17 %ID/g	1.17 %ID/g	0.02 %ID/g	0.16 %ID/g	865%
C[C@H](CCC(=O)NCC(=O)N[C@H](Cc1ccccc1)C(=O)N[C@H]1CSSC[C@@H](C(=O)N[C@H](C(=O)O)[C@@H](C)O)NC(=O)[C@H]([C@@H](C)O)NC(=O)[C@H](CCCCN)NC(=O)[C@@H](Cc2c[nH]c3ccccc23)NC(=O)[C@H](Cc2ccc(O)cc2)NC1=O)[C@H]1CC[C@H]2[C@@H]3[C@H](O)C[C@@H]4C[C@@H](NC(=O)CNC(=O)CN5CCN(CC(=O)O)CCN(CC(=O)O)CCN(CC(=O)O)CC5)CC[C@]4(C)[C@H]3C[C@H](O)[C@]12C [^111In-DOTA-Chol-TATE, metal not drawn] (X1-G[dF]CY[dW]KTCT-OH; disulfide 3-8)	–	–	0.36 %ID/g	0.55 %ID/g	0.83 %ID/g	1.32 %ID/g	1.86 %ID/g	0.15 %ID/g	0.48 %ID/g	159%
CSCC[C@H](NC(=O)CN1CCN(CC(=O)O)CCN(CC(=O)O)CCN(CC(=O)O)CC1)C(=O)N[C@H](C(=O)N[C@@H](CCCCNC(=O)CCCC(=O)N[C@H](Cc1ccccc1)C(=O)N[C@H]1CSSC[C@@H](C(=O)N[C@H](C(=O)O)[C@@H](C)O)NC(=O)[C@H]([C@@H](C)O)NC(=O)[C@H](CCCCN)NC(=O)[C@@H](Cc2c[nH]c3ccccc23)NC(=O)[C@H](Cc2ccc(O)cc2)NC1=O)C(=O)O)C(C)C [DOTA-MVK(ε)-TATE]	4 %ID/g	–	–	–	–	–	–	–	–	–
CSCC[C@H](NC(=O)CN1CCN(CC(=O)O)CCN(CC(=O)O)CCN(CC(=O)O)CC1)C(=O)N[C@H](C(=O)N[C@@H](CCCCN)C(=O)N[C@H](Cc1ccccc1)C(=O)N[C@H]1CSSC[C@@H](C(=O)N[C@H](C(=O)O)[C@@H](C)O)NC(=O)[C@H]([C@@H](C)O)NC(=O)[C@H](CCCCN)NC(=O)[C@@H](Cc2c[nH]c3ccccc23)NC(=O)[C@H](Cc2ccc(O)cc2)NC1=O)C(C)C [DOTA-MVK-TATE] ({DOTA}-MVK[dF]CY[dW]KTCT-OH; disulfide 5-10)	76 %ID/g	–	–	–	–	–	–	–	–	–
